Results: US20190048074A1

Legend:
[1] = target: full-length human APLNR (human) (UniProt P35414); assay: FACS, 4 µg/mL secondary alone, HEK293/CRE-luc/hAPLNR cells
[2] = target: full length cynomolgus APLNR (cynomolgus monkey (Macaca fascicularis)); assay: FACS, 4 µg/mL secondary alone, HEK293/CRE-luc/MfAPLNR cells
[3] = target: full-length human APLNR (human) (UniProt P35414); assay: FACS, 10 µg/mL antibody, HEK293/CRE-luc/hAPLNR cells
[4] = target: full length cynomolgus APLNR (cynomolgus monkey (Macaca fascicularis)); assay: FACS, 10 µg/mL antibody, HEK293/CRE-luc/MfAPLNR cells
[5] = target: full-length human APLNR (human) (UniProt P35414); assay: FACS, secondary alone, HEK293/CRE-luc/hAPLNR cells
[6] = target: full length cynomolgus APLNR (cynomolgus monkey (Macaca fascicularis)); assay: FACS, secondary alone, HEK293/CRE-luc/MfAPLNR cells

Chain of full length cynomolgus APLNR (cynomolgus monkey (Macaca fascicularis)) (O97666 whole entry): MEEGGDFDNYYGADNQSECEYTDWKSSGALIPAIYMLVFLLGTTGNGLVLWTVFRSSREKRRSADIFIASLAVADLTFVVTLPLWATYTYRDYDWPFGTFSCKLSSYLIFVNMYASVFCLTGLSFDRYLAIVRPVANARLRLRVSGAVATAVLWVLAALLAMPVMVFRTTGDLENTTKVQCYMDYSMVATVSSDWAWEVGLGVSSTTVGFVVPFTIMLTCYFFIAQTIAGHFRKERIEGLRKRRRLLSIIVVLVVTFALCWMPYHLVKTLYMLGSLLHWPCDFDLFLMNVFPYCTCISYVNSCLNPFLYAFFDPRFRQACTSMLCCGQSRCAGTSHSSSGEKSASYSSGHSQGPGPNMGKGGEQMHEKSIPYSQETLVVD
Chain of full-length human APLNR (human) (P35414 whole entry): as the sequence (O97666 whole entry) above, with S101F, F167L, D194E, V290I counted along it

| Substance | Binding Ratio of Geom. Mean to Unstained Cells [1] | Binding Ratio of Geom. Mean to Unstained Cells [2] | Binding Ratio of Geom. Mean to Unstained Cells [3] | Binding Ratio of Geom. Mean to Unstained Cells [4] | Binding Ratio of Geom. Mean to Unstained Cells [5] | Binding Ratio of Geom. Mean to Unstained Cells [6] |
| --- | --- | --- | --- | --- | --- | --- |
| anti-mouse IgG antibody conjugated with Alexa 647 | 4 fold | 3 fold | – | – | – | – |
| Isotype Control (Tables 4 and 5) (antibody) | – | – | 2 fold | 2 fold | – | – |
| mouse IgG (mIgG) control antibody | – | – | 7 fold | 6 fold | – | – |
| anti-human IgG antibody conjugated with Alexa 488 | 2 fold | 2 fold | – | – | 2 fold | 2 fold |
